B1: TBLR1-LgBiT wild type [not stated] / SETD5-SmBiT [not stated] (parent complex)
chain 1: MSISSDEVNFLVYRYLQESGFSHSAFTFGIESHISQSNINGALVPPAALISIIQKGLQYVEAEVSINEDGTLFDGRPIESLSLIDAVMPDVVQTRQQAYRDKLAQQQAAAAAAAAAAASQQGSAKNGENTANGEENGAHTIANNHTDMMEVDGDVEIPPNKAVVLRGHESEVFICAWNPVSDLLASGSGDSTARIWNLSENSTSGSTQLVLRHCIREGGQDVPSNKDVTSLDWNSEGTLLATGSYDGFARIWTKDGNLASTLGQHKGPIFALKWNKKGNFILSAGVDKTTIIWDAHTGEAKQQFPFHSAPALDVDWQSNNTFASCSTDMCIHVCKLGQDRPIKTFQGHTNEVNAIKWDPTGNLLASCSDDMTLKIWSMKQDNCVHDLQAHNKEIYTIKWSPTGPGTNNPNANLMLASASFDSTVRLWDVDRGICIHTLTKHQEPVYSVAFSPDGRYLASGSFDKCVHIWNTQTGALVHSYRGTGGIFEVCWNAAGDKVGASASDGSVCVLDLRK
chain 2: MSIAIPLGVTTSDTSYSDMAAGSDPESVEASPAVNEKSVYSTHNYGTTQRHGCRGLPYATIIPRSDLNGLPSPVEERCGDSPNSEGETVPTWCPCGLSQDGFLLNCDKCRGMSRGKVIRLHRRKQDNISGGDSSATESWDEELSPSTVLYTATQHTPTSITLTVRRTKPKKRKKSPEKGRAAPKTKKIKNSPSEAQNLDENTTEGWENRIRLWTDQYEEAFTNQYSADVQNALEQHLHSSKEFVGKPTILDTINKTELACNNTVIGSQMQLQLGRVTRVQKHRKILRAARDLALDTLIIEYRGKVMLRQQFEVNGHFFKKPYPFVLFYSKFNGVEMCVDARTFGNDARFIRRSCTPNAEVRHMIADGMIHLCIYAVSAITKDAEVTIAFDYEYSNCNYKVDCACHKGNRNCPIQKRNPNATELPLLPPPPSLPTIGAETRRRKARRKELEMEQQNEASEENNDQQSQEVPEKVTVSSDHEEVDNPEEKPEEEKEEVIDDQENLAHSRRTREDRKVEAIMHAFENLEKRKKRRDQPLEQSNSDVEITTTTSETPVGEETKTEAPESEVSNSVSNVTIPSTPQSVGVNTRRSSQAGDIAAEKLVPKPPPAKPSRPRPKSRISRYRTSSAQRLKRQKQANAQQAELSQAALEEGGSNSLVTPTEAGSLDSSGENRPLTGSDPTVVSITGSHVNRAASKYPKTKKYLVTEWLNDKAEKQECPVECPLRITTDPTVLATTLNMLPGLIHSPLICTTPKHYIRFGSPFIPERRRRPLLPDGTFSSCKKRWIKQALEEGMTQTSSVPQETRTQHLYQSNENSSSSSICKDNADLLSPLKKWKSRYLMEQNVTKLLRPLSPVTPPPPNSGSKSPQLATPGSSHPGEEECRNGYSLMFSPVTSLTTASRCNTPLQFELCHRKDLDLAKVGYLDSNTNSCADRPSLLNSGHSDLAPHPSLGPTSETGFPSRSGDGHQTLVRNSDQAFRTEFNLMYAYSPLNAMPRADGLYRGSPLVGDRKPLHLDGGYCSPAEGFSSRYEHGLMKDLSRGSLSPGGERACEGVPSAPQNPPQRKKVSLLEYRKRKQEAKENSAGGGGDSAQSKSKSAGAGQGSSNSVSDTGAHGVQGSSARTPSSPHKKFSPSHSSMSHLEAVSPSDSRGTSSSHCRPQENISSRWMVPTSVERLREGGSIPKVLRSSVRVAQKGEPSPTWESNITEKDSDPADGEGPETLSSALSKGATVYSPSRYSYQLLQCDSPRTESQSLLQQSSSPFRGHPTQSPGYSYRTTALRPGNPPSHGSSESSLSSTSYSSPAHPVSTDSLAPFTGTPGYFSSQPHSGNSTGSNLPRRSCPSSAASPTLQGPSDSPTSDSVSQSSTGTLSSTSFPQNSRSSLPSDLRTISLPSAGQSAVYQASRVSAVSNSQHYPHRGSGGVHQYRLQPLQGSGVKTQTGLS
B2: EGFP-ANKRD11 full length (FL), wild type [not stated] / endogenous TBLR1 of HEK293T cells and of wild-type Flp-In T-REx 293 cells [human (endogenous in HEK293T and Flp-In T-REx 293)] (parent complex)
chain 1: MPKGGCPKAPQQEELPLSSDMVEKQTGKKDKDKVSLTKTPKLERGDGGKEVRERASKRKLPFTAGANGEQKDSDTEKQGPERKRIKKEPVTRKAGLLFGMGLSGIRAGYPLSERQQVALLMQMTAEESANSPVDTTPKHPSQSTVCQKGTPNSASKTKDKVNKRNERGETRLHRAAIRGDARRIKELISEGADVNVKDFAGWTALHEACNRGYYDVAKQLLAAGAEVNTKGLDDDTPLHDAANNGHYKVVKLLLRYGGNPQQSNRKGETPLKVANSPTMVNLLLGKGTYTSSEESSTESSEEEDAPSFAPSSSVDGNNTDSEFEKGLKHKAKNPEPQKATAPVKDEYEFDEDDEQDRVPPVDDKHLLKKDYRKETKSNSFISIPKMEVKSYTKNNTIAPKKASHRILSDTSDEEDASVTVGTGEKLRLSAHTILPGSKTREPSNAKQQKEKNKVKKKRKKETKGREVRFGKRSDKFCSSESESESSESGEDDRDSLGSSGCLKGSPLVLKDPSLFSSLSASSTSSHGSSAAQKQNPSHTDQHTKHWRTDNWKTISSPAWSEVSSLSDSTRTRLTSESDYSSEGSSVESLKPVRKRQEHRKRASLSEKKSPFLSSAEGAVPKLDKEGKVVKKHKTKHKHKNKEKGQCSISQELKLKSFTYEYEDSKQKSDKAILLENDLSTENKLKVLKHDRDHFKKEEKLSKMKLEEKEWLFKDEKSLKRIKDTNKDISRSFREEKDRSNKAEKERSLKEKSPKEEKLRLYKEERKKKSKDRPSKLEKKNDLKEDKISKEKEKIFKEDKEKLKKEKVYREDSAFDEYCNKNQFLENEDTKFSLSDDQRDRWFSDLSDSSFDFKGEDSWDSPVTDYRDMKSDSVAKLILETVKEDSKERRRDSRAREKRDYREPFFRKKDRDYLDKNSEKRKEQTEKHKSVPGYLSEKDKKRRESAEAGRDRKDALESCKERRDGRAKPEEAHREELKECGCESGFKDKSDGDFGKGLEPWERHHPAREKEKKDGPDKERKEKTKPERYKEKSSDKDKSEKSILEKCQKDKEFDKCFKEKKDTKEKHKDTHGKDKERKASLDQGKEKKEKAFPGIISEDFSEKKDDKKGKEKSWYIADIFTDESEDDRDSCMGSGFKMGEASDLPRTDGLQEKEEGREAYASDRHRKSSDKQHPERQKDKEPRDRRKDRGAADAGRDKKEKVFEKHKEKKDKESTEKYKDRKDRASVDSTQDKKNKQKLPEKAEKKHAAEDKAKSKHKEKSDKEHSKERKSSRSADAEKSLLEKLEEEALHEYREDSNDKISEVSSDSFTDRGQEPGLTAFLEVSFTEPPGDDKPRESACLPEKLKEKERHRHSSSSSKKSHDRERAKKEKAEKKEKGEDYKEGGSRKDSGQYEKDFLEADAYGVSYNMKADIEDELDKTIELFSTEKKDKNDSEREPSKKIEKELKPYGSSAINILKEKKKREKHREKWRDEKERHRDRHADGLLRHHRDELLRHHRDEQKPATRDKDSPPRVLKDKSRDEGPRLGDAKLKEKFKDGAEKEKGDPVKMSNGNDKVAPSKDPGKKDARPREKLLGDGDLMMTSFERMLSQKDLEIEERHKRHKERMKQMEKLRHRSGDPKLKEKAKPADDGRKKGLDIPAKKPPGLDPPFKDKKLKESTPIPPAAENKLHPASGADSKDWLAGPHMKEVLPASPRPDQSRPTGVPTPTSVLSCPSYEEVMHTPRTPSCSADDYADLVFDCADSQHSTPVPTAPTSACSPSFFDRFSVASSGLSENASQAPARPLSTNLYRSVSVDIRRTPEEEFSVGDKLFRQQSVPAASSYDSPMPPSMEDRAPLPPVPAEKFACLSPGYYSPDYGLPSPKVDALHCPPAAVVTVTPSPEGVFSSLQAKPSPSPRAELLVPSLEGALPPDLDTSEDQQATAAIIPPEPSYLEPLDEGPFSAVITEEPVEWAHPSEQALASSLIGGTSENPVSWPVGSDLLLKSPQRFPESPKRFCPADPLHSAAPGPFSASEAPYPAPPASPAPYALPVAEPGLEDVKDGVDAVPAAISTSEAAPYAPPSGLESFFSNCKSLPEAPLDVAPEPACVAAVAQVEALGPLENSFLDGSRGLSHLGQVEPVPWADAFAGPEDDLDLGPFSLPELPLQTKDAADGEAEPVEESLAPPEEMPPGAPGVINGGDVSTVVAEEPPALPPDQASTRLPAELEPEPSGEPKLDVALEAAVEAETVPEERARGDPDSSVEPAPVPPEQRPLGSGDQGAEAEGPPAASLCAPDGPAPNTVAQAQAADGAGPEDDTEASRAAAPAEGPPGGIQPEAAEPKPTAEAPKAPRVEEIPQRMTRNRAQMLANQSKQGPPPSEKECAPTPAPVTRAKARGSEDDDAQAQHPRKRRFQRSTQQLQQQLNTSTQQTREVIQQTLAAIVDAIKLDAIEPYHSDRANPYFEYLQIRKKIEEKRKILCCITPQAPQCYAEYVTYTGSYLLDGKPLSKLHIPVIAPPPSLAEPLKELFRQQEAVRGKLRLQHSIEREKLIVSCEQEILRVHCRAARTIANQAVPFSACTMLLDSEVYNMPLESQGDENKSVRDRFNARQFISWLQDVDDKYDRMKTCLLMRQQHEAAALNAVQRMEWQLKVQELDPAGHKSLCVNEVPSFYVPMVDVNDDFVLLPA
chain 2: B1 chain 1
B3: TBLR1-LgBiT wild type [not stated] / ANKRD11-SmBiT [not stated] (parent complex)
chain 1: B1 chain 1
chain 2: B2 chain 1

Variants of: B1
Test: NanoLuc complementation assay; n = 6–7 independent transfections per TBLR1 mutant; read off a plot

| ratio to parent | Variant |
| --- | --- |
| ~1.1 | chain 1 Y446D |
| ~1.3 | chain 1 Y446C |
| ~1.1 | chain 1 T321S |
| ~0.7 | chain 1 P444R |
| ~1.2 | chain 1 Y245C |
| ~0.87 | chain 1 Y395C |
| ~0.06 | chain 1 S459R |
| ~0.05 | chain 1 L282P |
| ~0.06 | chain 1 S417R |

Second part, the variant before the results:

| Variant | ratio to parent |
| --- | --- |
| chain 1 A311P | ~0.55 |
| chain 1 D369E | ~0.15 |
| chain 1 G460D | ~0.07 |
| chain 1 H213Q | ~1.2 |
| chain 1 H441R | ~0.55 |
| chain 1 F270L | ~1.8 |
| chain 1 D370N | ~0.05 |
| chain 1 D328H | ~0.55 |
| chain 1 D328G | ~0.6 |

Variants of: B1
Test: co-immunoprecipitation, mass spectrometry; TBLR1-null Flp-In T-REx 293 cells; n = 3 independent transfections; read off a plot

| screen value | Variant |
| --- | --- |
| ~6.9 log2 | chain 1 D370N |

Variants of: B2
Test: co-immunoprecipitation, mass spectrometry; HEK293T cells; n = 3 independent transfections per mutant; read off a plot

| screen value | Variant |
| --- | --- |
| ~8.2 log2 | chain 1 L2605R |
| ~5.7 log2 | chain 1 R2523W |
| ~2.6 log2 | chain 1 E2522K |
| ~8.3 log2 | chain 1 S2475P |

Variants of: B3
Test: NanoLuc complementation assay; n = 3–5 independent transfections per TBLR1 mutant; read off a plot

| ratio to parent | Variant |
| --- | --- |
| ~0.06 | chain 1 G29D |
| ~0.37 | chain 1 E63K |
| ~0.1 | chain 1 F10L |
| ~0.07 | chain 1 G70D |
| ~0.06 | chain 1 L83Q |

Variants of: B3
Test: co-immunoprecipitation, mass spectrometry; TBLR1-null Flp-In T-REx 293 cells; n = 3 independent transfections; read off a plot

| screen value | Variant |
| --- | --- |
| ~1.9 log2 | chain 1 G70D |
